tested on: Escherichia coli TOP10; experiment: shrunken log2 fold change of peptide-encoding DNA abundance (4.5 h post-induction vs induction); higher = less antimicrobial activity (less host growth inhibition); settings: time post-induction: 4.5 h; library: site-saturation at positions 5, 18, 19, 20
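Also: peptides expressed intracellularly from a pBAD plasmid library in pooled LB shake-flask culture, induced with 0.3% L-arabinose, DNA abundance read by NGS, three biological replicates, DESeq2 with apeglm shrinkage.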

| Sequence | shrunken log2 fold change |
| --- | --- |
| RRIRARPPRLPRPRPRPSHYPRP | -0.0225 |
| RRIRTRPPRLPRPRPRPFHNPRP | -0.31 |
| RRIRWRPPRLPRPRPRPFMCPRP | -0.245 |
| RRIRDRPPRLPRPRPRPMYRPRP | -0.0107 |
| RRIRFRPPRLPRPRPRPYNWPRP | -0.0539 |
| RRIRMRPPRLPRPRPRPNHDPRP | -0.261 |
| RRIRPRPPRLPRPRPRPNPCPRP | -0.165 |
| RRIRQRPPRLPRPRPRPSGVPRP | -0.141 |
| RRIRLRPPRLPRPRPRPMTNPRP | -0.0811 |
| RRIRFRPPRLPRPRPRPQKKPRP | -0.0897 |
| RRIRNRPPRLPRPRPRPFGTPRP | -0.214 |
| RRIRKRPPRLPRPRPRPRTQPRP | 0.605 |
| RRIRIRPPRLPRPRPRPIHSPRP | -0.302 |
| RRIRNRPPRLPRPRPRPHLSPRP | -0.259 |
| RRIRLRPPRLPRPRPRPTWSPRP | 0.201 |
| RRIRCRPPRLPRPRPRPADLPRP | -0.24 |
| RRIRARPPRLPRPRPRPLLCPRP | 0.612 |
| RRIRDRPPRLPRPRPRPQHHPRP | -0.299 |
| RRIRIRPPRLPRPRPRPNSYPRP | -0.084 |
| RRIRSRPPRLPRPRPRPCWKPRP | -0.169 |
| RRIRFRPPRLPRPRPRPPMAPRP | 0.277 |
| RRIRNRPPRLPRPRPRPLLDPRP | 0.0489 |
| RRIRFRPPRLPRPRPRPEYRPRP | -0.218 |
| RRIRPRPPRLPRPRPRPGGDPRP | 0.496 |
| RRIRKRPPRLPRPRPRPLSTPRP | 0.025 |

| Sequence | shrunken log2 fold change |
| --- | --- |
| RRIRMRPPRLPRPRPRPCSPPRP | 0.0324 |
| RRIRTRPPRLPRPRPRPQDYPRP | 0.0537 |
| RRIRQRPPRLPRPRPRPGCYPRP | -0.451 |
| RRIRLRPPRLPRPRPRPDIMPRP | -0.0927 |
| RRIRDRPPRLPRPRPRPQGWPRP | 0.693 |
| RRIRSRPPRLPRPRPRPSDEPRP | -0.673 |
| RRIRGRPPRLPRPRPRPEPQPRP | 1.41 |
| RRIRDRPPRLPRPRPRPPMPPRP | 0.203 |
| RRIRFRPPRLPRPRPRPVVPPRP | -0.196 |
| RRIRIRPPRLPRPRPRPQTFPRP | -0.156 |
| RRIRHRPPRLPRPRPRPTFPPRP | 0.145 |
| RRIRKRPPRLPRPRPRPILWPRP | 0.149 |
| RRIRRRPPRLPRPRPRPAPIPRP | 0.92 |
| RRIRRRPPRLPRPRPRPPDIPRP | -0.0254 |
| RRIRARPPRLPRPRPRPVSVPRP | 0.137 |
| RRIRSRPPRLPRPRPRPNDRPRP | 0.0698 |
| RRIRFRPPRLPRPRPRPTNSPRP | -0.271 |
| RRIRMRPPRLPRPRPRPSGHPRP | 0.0431 |
| RRIRVRPPRLPRPRPRPKKKPRP | -0.356 |
| RRIRWRPPRLPRPRPRPILKPRP | -0.281 |
| RRIRKRPPRLPRPRPRPSVMPRP | 0.163 |
| RRIRFRPPRLPRPRPRPDRKPRP | 0.00132 |
| RRIRTRPPRLPRPRPRPHECPRP | -0.287 |
| RRIRPRPPRLPRPRPRPWGTPRP | -0.0725 |
| RRIRKRPPRLPRPRPRPYGFPRP | -0.294 |

| Sequence | shrunken log2 fold change |
| --- | --- |
| RRIRRRPPRLPRPRPRPFCTPRP | -0.13 |
| RRIRVRPPRLPRPRPRPVEPPRP | 0.218 |
| RRIRIRPPRLPRPRPRPNLGPRP | -0.109 |
| RRIRIRPPRLPRPRPRPDKIPRP | -0.0602 |
| RRIRCRPPRLPRPRPRPIADPRP | -0.107 |
| RRIRVRPPRLPRPRPRPRTFPRP | -0.284 |
| RRIRQRPPRLPRPRPRPWGRPRP | 0.00592 |
| RRIRKRPPRLPRPRPRPNLEPRP | 0.185 |
| RRIRMRPPRLPRPRPRPGVAPRP | 1.02 |
| RRIRWRPPRLPRPRPRPDGKPRP | 0.00353 |
| RRIRARPPRLPRPRPRPGSSPRP | -0.112 |
| RRIRARPPRLPRPRPRPVWQPRP | 0.129 |
| RRIRPRPPRLPRPRPRPTIEPRP | -0.0748 |
| RRIRIRPPRLPRPRPRPIYKPRP | -0.517 |
| RRIRSRPPRLPRPRPRPWKWPRP | 0.0473 |
| RRIRGRPPRLPRPRPRPVLHPRP | -0.0969 |
| RRIRYRPPRLPRPRPRPHNLPRP | -0.131 |
| RRIRKRPPRLPRPRPRPSQYPRP | -0.21 |
| RRIRRRPPRLPRPRPRPIKPPRP | 0.0148 |
| RRIRYRPPRLPRPRPRPTMLPRP | -0.54 |
| RRIRHRPPRLPRPRPRPFMDPRP | -0.436 |
| RRIRERPPRLPRPRPRPFFPPRP | -0.241 |
| RRIRDRPPRLPRPRPRPCELPRP | 0.0111 |
| RRIRIRPPRLPRPRPRPWGVPRP | -0.888 |
| RRIRDRPPRLPRPRPRPWQNPRP | -0.0811 |

| Sequence | shrunken log2 fold change |
| --- | --- |
| RRIRRRPPRLPRPRPRPLRMPRP | 1.2 |
| RRIRCRPPRLPRPRPRPMRRPRP | 0.163 |
| RRIRMRPPRLPRPRPRPALCPRP | 0.221 |
| RRIRCRPPRLPRPRPRPSLKPRP | -0.23 |
| RRIRNRPPRLPRPRPRPHYPPRP | -0.465 |
| RRIRLRPPRLPRPRPRPALMPRP | 0.306 |
| RRIRWRPPRLPRPRPRPYDDPRP | -0.321 |
| RRIRERPPRLPRPRPRPTARPRP | 0.258 |
| RRIRPRPPRLPRPRPRPNGKPRP | -0.257 |
| RRIRGRPPRLPRPRPRPMDDPRP | 0.994 |
| RRIRTRPPRLPRPRPRPFFQPRP | 0.0474 |
| RRIRFRPPRLPRPRPRPMMSPRP | -0.0228 |
| RRIRDRPPRLPRPRPRPLSGPRP | -0.0838 |
| RRIRARPPRLPRPRPRPVIAPRP | 0.161 |
| RRIRRRPPRLPRPRPRPNNQPRP | -0.0752 |
| RRIRVRPPRLPRPRPRPGENPRP | -0.0226 |
| RRIRLRPPRLPRPRPRPWLGPRP | 0.181 |
| RRIRERPPRLPRPRPRPPHCPRP | 0.118 |
| RRIRMRPPRLPRPRPRPNQVPRP | -0.217 |
| RRIRNRPPRLPRPRPRPSWFPRP | -0.398 |
| RRIRCRPPRLPRPRPRPKPMPRP | -0.00253 |
| RRIRTRPPRLPRPRPRPKAHPRP | 0.182 |
| RRIRTRPPRLPRPRPRPVHPPRP | -0.579 |
| RRIRQRPPRLPRPRPRPDLDPRP | 0.0552 |
| RRIRDRPPRLPRPRPRPPFEPRP | 0.254 |

| Sequence | shrunken log2 fold change |
| --- | --- |
| RRIRHRPPRLPRPRPRPDDTPRP | -0.00674 |
| RRIRTRPPRLPRPRPRPCINPRP | -0.686 |
| RRIRIRPPRLPRPRPRPKVKPRP | -0.127 |
| RRIRIRPPRLPRPRPRPNHDPRP | -0.832 |
| RRIRYRPPRLPRPRPRPDLHPRP | -0.0267 |
| RRIRGRPPRLPRPRPRPNWWPRP | 3.32 |
| RRIRYRPPRLPRPRPRPHLRPRP | -0.485 |
| RRIRKRPPRLPRPRPRPVHHPRP | -0.0438 |
| RRIRKRPPRLPRPRPRPSSTPRP | -0.151 |
| RRIRHRPPRLPRPRPRPTFEPRP | 0.0452 |
| RRIRSRPPRLPRPRPRPHDHPRP | -0.23 |
| RRIRIRPPRLPRPRPRPKSNPRP | -0.673 |
| RRIRPRPPRLPRPRPRPMYSPRP | -0.386 |
| RRIRYRPPRLPRPRPRPMHNPRP | 0.162 |
| RRIRNRPPRLPRPRPRPMIVPRP | -0.017 |
| RRIRKRPPRLPRPRPRPCYDPRP | -0.0387 |
| RRIRDRPPRLPRPRPRPFEAPRP | 0.277 |
| RRIRKRPPRLPRPRPRPMYYPRP | -0.148 |
| RRIRLRPPRLPRPRPRPKWTPRP | 0.0422 |
| RRIRWRPPRLPRPRPRPSRLPRP | 0.00373 |
| RRIRDRPPRLPRPRPRPACKPRP | 0.00774 |
| RRIRNRPPRLPRPRPRPVPFPRP | 0.041 |
| RRIRWRPPRLPRPRPRPIHEPRP | 0.041 |
| RRIRNRPPRLPRPRPRPWKVPRP | -1.21 |
| RRIRGRPPRLPRPRPRPYWNPRP | -0.39 |

Reference: the supplement of paper PMC9112550, “Optimization of the antimicrobial peptide Bac7 by deep mutational scanning” (BMC Biology, 2022)
